Data published in PMC11840411, “GS2 cooperates with IPA1 to control panicle architecture” (The New Phytologist, 2025).

T1: GS2TM (miR396 target-site mutant) (Oryza sativa (rice), GS2TM plants?, UniProt Q6ZIK5 1-394, S163K)
T1 sequence: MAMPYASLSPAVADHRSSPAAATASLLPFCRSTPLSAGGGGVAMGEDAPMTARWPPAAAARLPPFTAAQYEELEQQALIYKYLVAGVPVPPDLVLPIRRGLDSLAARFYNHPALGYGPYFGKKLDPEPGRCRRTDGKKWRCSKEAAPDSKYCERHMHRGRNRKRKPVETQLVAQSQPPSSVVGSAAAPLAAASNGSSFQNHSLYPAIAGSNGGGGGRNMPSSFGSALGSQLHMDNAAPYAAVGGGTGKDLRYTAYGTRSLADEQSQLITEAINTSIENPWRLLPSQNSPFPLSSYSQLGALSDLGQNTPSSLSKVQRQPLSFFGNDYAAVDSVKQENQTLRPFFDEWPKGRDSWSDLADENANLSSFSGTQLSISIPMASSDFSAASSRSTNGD

T2: GS2 (OsGRF4) (Oryza sativa (rice), ZH11?, UniProt Q6ZIK5 1-394)
T2 sequence: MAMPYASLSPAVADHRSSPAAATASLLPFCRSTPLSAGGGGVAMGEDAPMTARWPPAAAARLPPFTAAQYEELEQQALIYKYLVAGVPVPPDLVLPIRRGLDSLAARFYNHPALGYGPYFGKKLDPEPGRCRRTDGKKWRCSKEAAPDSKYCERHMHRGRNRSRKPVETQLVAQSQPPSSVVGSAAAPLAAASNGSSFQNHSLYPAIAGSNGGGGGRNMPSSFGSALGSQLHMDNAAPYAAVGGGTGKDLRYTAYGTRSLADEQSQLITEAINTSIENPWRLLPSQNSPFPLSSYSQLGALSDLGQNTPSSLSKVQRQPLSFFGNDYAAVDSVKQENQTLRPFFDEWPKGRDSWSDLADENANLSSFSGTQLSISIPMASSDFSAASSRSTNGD

T3: GST-IPA1 fusion protein (rice (Oryza sativa), UniProt Q7EXZ2 1-417)
T3 construct: IPA1/OsSPL14 of rice, full-length CDS in pGEX-4T-1; source: E. coli BL21 (DE3), purified on glutathione beads
T3 sequence (looked up): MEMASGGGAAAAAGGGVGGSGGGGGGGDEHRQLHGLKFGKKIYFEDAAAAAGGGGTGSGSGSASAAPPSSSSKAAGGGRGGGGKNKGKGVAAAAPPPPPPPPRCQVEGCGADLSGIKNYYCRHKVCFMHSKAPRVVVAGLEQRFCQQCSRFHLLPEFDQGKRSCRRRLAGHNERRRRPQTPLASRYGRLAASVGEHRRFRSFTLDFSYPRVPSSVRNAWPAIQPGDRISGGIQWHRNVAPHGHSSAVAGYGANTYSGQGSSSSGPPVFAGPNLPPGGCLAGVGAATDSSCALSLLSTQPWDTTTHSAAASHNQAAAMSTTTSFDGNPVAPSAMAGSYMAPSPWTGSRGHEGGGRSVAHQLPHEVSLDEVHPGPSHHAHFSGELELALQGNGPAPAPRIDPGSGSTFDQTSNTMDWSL


Key:
[1] = biological target: T1, GS2TM (miR396 target-site mutant); test: EMSA; EMSA: 20 min at 25 C, 4% acrylamide gel, biotin probes (Beyotime GS008/GS009); buffer, salt and pH not stated; details: protein: recombinant; tags: GST; label: biotin; blunt
GS2 (OsGRF4) = biological target: T2, GS2 (OsGRF4); test: as above; details: protein: recombinant; tags: GST; label: biotin; blunt
GST-IPA1 fusion protein = biological target: T3, GST-IPA1 fusion protein; test: pull-down; about 0.5 μg GST-IPA1 bound to GST beads at 4°C for 2 h, the same amount of His-GS2 incubated for 2 h; 150 mM KCl, 50 mM Tris-HCl pH 7.5, 0.01% NP-40; detected with His and GST antibodies; details: both partners purified

| binding result (GST-IPA1 fusion protein) | Binder | binding result [1] | binding result (GS2 (OsGRF4)) |
| --- | --- | --- | --- |
| – | GCCA core motif probe (GS2-EMSA) (dsDNA) DNA 1: CCTGTCAAAGCCGGCCATCGCTGCCGGCTG DNA 2: CAGCCGGCAGCGATGGCCGGCTTTGACAGG | binds | binds |
| binds | His-GS2 fusion protein (natural protein, rice (Oryza sativa), UniProt Q6ZIK5 1-394, looked up, GS2/OsGRF4 of rice, full-length CDS in pET28a) MAMPYASLSPAVADHRSSPAAATASLLPFCRSTPLSAGGGGVAMGEDAPMTARWPPAAAARLPPFTAAQYEELEQQALIYKYLVAGVPVPPDLVLPIRRGLDSLAARFYNHPALGYGPYFGKKLDPEPGRCRRTDGKKWRCSKEAAPDSKYCERHMHRGRNRSRKPVETQLVAQSQPPSSVVGSAAAPLAAASNGSSFQNHSLYPAIAGSNGGGGGRNMPSSFGSALGSQLHMDNAAPYAAVGGGTGKDLRYTAYGTRSLADEQSQLITEAINTSIENPWRLLPSQNSPFPLSSYSQLGALSDLGQNTPSSLSKVQRQPLSFFGNDYAAVDSVKQENQTLRPFFDEWPKGRDSWSDLADENANLSSFSGTQLSISIPMASSDFSAASSRSTNGD | – | – |
